# ± gives the uncertainty stated by the source.
# Assay: self-splicing fitness, log relative to wild type (ln ratio); higher = more splicing; Tetrahymena group I intron in knt gene, E. coli kanamycin selection, DiMSum; sequences stand for … in CUCUCU…GGAGGGAAAAGUUAUCAGGCAUGCACCUGGUAGCUAGUCUUUAAACCAAUAGAUUGCAUCGGUUUAAAAGGCAAGACCGUCAAAUUGCGGGAAAGGGGUCAACAGCCGUUCAGUACCAAGUCUCAGGGGAAACUUUGAGAUGGCCUUGCAAAGGGUAUGGUAAUAAGCUGACGGACAUGGUCCUAACCACGCAGCCAAGUCCUAAGUCAACAGAUCUUCUGUUGAUAUGGAUGCAGUUCACAGACUAAAUGUCGGUCGGGGAAGAUGUAUUCUUCUCAUAAGAUAUAGUCGGACCUCUCCUUAAUGGGAGCUAGCGGAUGAAGUGAUGCAACACUGGAGCCGCUGGGAACUAAUUUGUAUGCGAAAGUAUAUUGAUUAGUUUUGGAGUACUCGUGGUCG
# How it was run: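 Pooled colonies went to amplicon sequencing on an Illumina HiSeq 2500 after six replicate transformations. The plates were LB agar with 100 μg/mL carbenicillin, 50 μM IPTG and 0.2% rhamnose, with or without 25 μg/mL kanamycin, incubated overnight at 37°C or 30°C. The E. coli BL21(DE3) library had all eight P1ex-region intron nucleotides randomised, the intron placed in the knt kanamycin-resistance gene on pET-22b(+). DiMSum fitness is the error-weighted combination of replicate fold changes, kanamycin against none, normalised to wild type.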
Sequence,self-splicing fitness (ln) (30 °C),self-splicing fitness (ln) (37 °C)
AGAUAGCAAUAUUACGGUUA,-0.766 ± 0.11,-0.936 ± 0.1
AGAUAGCAAUAUUACGUCCU,0.545 ± 0.095,0.159 ± 0.1
AGAUAGCAAUAUUACGUGGU,-3.03 ± 0.11,-2.27 ± 0.15
AGAUAGCAAUAUUACGUUUG,-3.06 ± 0.23,-1.21 ± 0.17
AGCAAGCAAUAUUACGAACU,-0.731 ± 0.12,-0.593 ± 0.14
AGCAAGCAAUAUUACGAAGG,-4.66 ± 0.36,-1.54 ± 0.22
AGCAAGCAAUAUUACGACUA,-0.478 ± 0.11,-0.326 ± 0.13
AGCAAGCAAUAUUACGAUGC,-2.08 ± 0.11,-1.71 ± 0.14
AGCAAGCAAUAUUACGCCCG,-0.279 ± 0.08,-0.0697 ± 0.11
AGCAAGCAAUAUUACGCCGG,-3.71 ± 0.37,-1.81 ± 0.24
AGCAAGCAAUAUUACGCGGC,-3.39 ± 0.34,-1.82 ± 0.19
AGCAAGCAAUAUUACGCUCU,-3 ± 0.22,-1.57 ± 0.17
AGCAAGCAAUAUUACGGCCC,0.104 ± 0.19,-0.363 ± 0.28
AGCAAGCAAUAUUACGGCGA,-0.386 ± 0.094,-0.039 ± 0.11
AGCAAGCAAUAUUACGGCGG,-1.29 ± 0.083,0.133 ± 0.11
AGCAAGCAAUAUUACGGUGU,-2.65 ± 0.13,-0.608 ± 0.1
AGCAAGCAAUAUUACGUACG,-1.99 ± 0.13,-0.695 ± 0.11
AGCAAGCAAUAUUACGUACU,-0.47 ± 0.057,-0.368 ± 0.075
AGCAAGCAAUAUUACGUAUU,-3.02 ± 0.14,-1.24 ± 0.11
AGCAAGCAAUAUUACGUCUA,-0.673 ± 0.062,-0.456 ± 0.08
AGCAAGCAAUAUUACGUCUC,-2.61 ± 0.29,
AGCAAGCAAUAUUACGUGGG,-3.44 ± 0.12,-2.37 ± 0.16
AGCCAGCAAUAUUACGAACA,-2.8 ± 0.24,-1.98 ± 0.33
AGCCAGCAAUAUUACGAAUC,,-1.94 ± 0.39

Sequence,self-splicing fitness (ln) (30 °C),self-splicing fitness (ln) (37 °C)
AGCCAGCAAUAUUACGAGAA,-2.99 ± 0.36,-1.42 ± 0.3
AGCCAGCAAUAUUACGAGAC,-3.57 ± 0.18,-2.61 ± 0.16
AGCCAGCAAUAUUACGAGGC,-3.6 ± 0.2,-2.02 ± 0.19
AGCCAGCAAUAUUACGAGGG,-2.58 ± 0.15,-2.38 ± 0.17
AGCCAGCAAUAUUACGAUAA,-4.66 ± 0.46,-2.89 ± 0.17
AGCCAGCAAUAUUACGAUAU,-3.25 ± 0.16,-1.83 ± 0.14
AGCCAGCAAUAUUACGAUCU,-0.174 ± 0.11,0.256 ± 0.1
AGCCAGCAAUAUUACGCAGA,-3.39 ± 0.18,-2.94 ± 0.18
AGCCAGCAAUAUUACGCAGU,-4 ± 0.2,-3.46 ± 0.21
AGCCAGCAAUAUUACGCCCA,-1.93 ± 0.2,-1.72 ± 0.25
AGCCAGCAAUAUUACGCCCU,0.0781 ± 0.11,0.234 ± 0.13
AGCCAGCAAUAUUACGCCGC,-2.98 ± 0.28,-3.25 ± 0.37
AGCCAGCAAUAUUACGCCUG,-2.37 ± 0.16,-2.11 ± 0.27
AGCCAGCAAUAUUACGCGAC,-0.935 ± 0.13,-1.78 ± 0.2
AGCCAGCAAUAUUACGCUGU,-3.57 ± 0.2,-3.32 ± 0.19
AGCCAGCAAUAUUACGGAAA,-1.88 ± 0.3,-1.3 ± 0.25
AGCCAGCAAUAUUACGGACA,-0.814 ± 0.1,-0.491 ± 0.13
AGCCAGCAAUAUUACGGACC,-0.609 ± 0.095,-0.386 ± 0.11
AGCCAGCAAUAUUACGGACU,-1.93 ± 0.088,-0.917 ± 0.096
AGCCAGCAAUAUUACGGAUG,-1.85 ± 0.1,-0.824 ± 0.12
AGCCAGCAAUAUUACGGCGA,-1.33 ± 0.095,-0.342 ± 0.11
AGCCAGCAAUAUUACGGGCG,-2.66 ± 0.1,-0.918 ± 0.1
AGCCAGCAAUAUUACGGGGA,-1.87 ± 0.12,-0.713 ± 0.11
AGCCAGCAAUAUUACGGUCA,-0.0408 ± 0.09,0.4 ± 0.093
